Assay results as given in the supplement of paper PMC5998384.

How the values were obtained:
HeLa Kyoto [1] = assay: solubility in G1/S (NP-40 vs SDS abundance) (log2 ratio); higher = more soluble; conditions: cell cycle stage: G1/S
HeLa Kyoto [2] = assay: solubility change mitosis vs G1/S (difference of NP-40 vs SDS log2 ratios) (log2 ratio difference); higher = more soluble in mitosis
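Throughout, for solubility change mitosis vs G1/S (difference of NP-40 vs SDS log2 ratios): synchronized HeLa Kyoto cells (double thymidine block for G1/S, nocodazole release for mitosis), protein amounts in NP-40 versus SDS lysates quantified by mass spectrometry, three biological replicates.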
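Throughout, for solubility in G1/S (NP-40 vs SDS abundance): HeLa Kyoto cells arrested at G1/S by double thymidine block, proteins quantified by TMT10plex mass spectrometry in mild NP-40 versus SDS extracts, three biological replicates.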

Substance	solubility in G1/S (log2) (HeLa Kyoto [1])	solubility change mitosis (log2) (HeLa Kyoto [2])
MCARMAGRTTAAPRGPYGPWLCLLVALALDVVRVDCGQAPLDPVYLPAALELLDAPEHFRVQQVGHYPPANSSLSSRSETFLLLQPWPRAQPLLRASYPPFATQQVVPPRVTEPHQRPVPWDVRAVSVEAAVTPAEPYARVLFHLKGQDWPPGSGSLPCARLHATHPAGTAHQACRFQPSLGACVVELELPSHWFSQASTTRAELAYTLEPAAEGPGGCGSGEENDPGEQALPVGGVELRPADPPQYQEVPLDEAVTLRVPDMPVRPGQLFSATLLLRHNFTASLLTLRIKVKKGLHVTAARPAQPTLWTAKLDRFKGSRHHTTLITCHRAGLTEPDSSPLELSEFLWVDFVVENSTGGGVAVTRPVTWQLEYPGQAPEAEKDKMVWEILVSERDIRALIPLAKAEELVNTAPLTGVPQHVPVRLVTVDGGGALVEVTEHVGCESANTQVLQVSEACDAVFVAGKESRGARGVRVDFWWRRLRASLRLTVWAPLLPLRIELTDTTLEQVRGWRVPGPAEGPAEPAAEASDEAERRARGCHLQYQRAGVRFLAPFAAHPLDGGRRLTHLLGPDWLLDVSHLVAPHARVLDSRVASLEGGRVVVGREPGVTSIEVRSPLSDSILGEQALAVTDDKVSVLELRVQPVMGISLTLSRGTAHPGEVTATCWAQSALPAPKQEVALSLWLSFSDHTVAPAELYDRRDLGLSVSAEEPGAILPAEEQGAQLGVVVSGAGAEGLPLHVALHPPEPCRRGRHRVPLASGTAWLGLPPASTPAPALPSSPAWSPPATEATMGGKRQVAGSVGGNTGVRGKFERAEEEARKEETEAREEEEEEEEEMVPAPQHVTELELGMYALLGVFCVAIFIFLVNGVVFVLRYQRKEPPDSATDPTSPQPHNWVWLGTDQEELSRQLDRQSPGPPKGEGSCPCESGGGGEAPTLAPGPPGGTTSSSSTLARKEAGGRRKRVEFVTFAPAPPAQSPEEPVGAPAVQSILVAGEEDIRWVCEDMGLKDPEELRNYMERIRGSS [TMEM132A]	-0.00491	-0.0467
MIVFGWAVFLASRSLGQGLLLTLEEHIAHFLGTGGAATTMGNSCICRDDSGTDDSVDTQQQQAENSAVPTADTRSQPRDPVRPPRRGRGPHEPRRKKQNVDGLVLDTLAVIRTLVDNDQEPPYSMITLHEMAETDEGWLDVVQSLIRVIPLEDPLGPAVITLLLDECPLPTKDALQKLTEILNLNGEVACQDSSHPAKHRNTSAVLGCLAEKLAGPASIGLLSPGILEYLLQCLKLQSHPTVMLFALIALEKFAQTSENKLTISESSISDRLVTLESWANDPDYLKRQVGFCAQWSLDNLFLKEGRQLTYEKVNLSSIRAMLNSNDVSEYLKISPHGLEARCDASSFESVRCTFCVDAGVWYYEVTVVTSGVMQIGWATRDSKFLNHEGYGIGDDEYSCAYDGCRQLIWYNARSKPHIHPCWKEGDTVGFLLDLNEKQMIFFLNGNQLPPEKQVFSSTVSGFFAAASFMSYQQCEFNFGAKPFKYPPSMKFSTFNDYAFLTAEEKIILPRHRRLALLKQVSIRENCCSLCCDEVADTQLKPCGHSDLCMDCALQLETCPLCRKEIVSRIRQISHIS [RSPRY1]	-0.235	-0.00113
MALRLLRRAARGAAAAALLRLKASLAADIPRLGYSSSSHHKYIPRRAVLYVPGNDEKKIKKIPSLNVDCAVLDCEDGVAANKKNEARLRIVKTLEDIDLGPTEKCVRVNSVSSGLAEEDLETLLQSRVLPSSLMLPKVESPEEIQWFADKFSFHLKGRKLEQPMNLIPFVETAMGLLNFKAVCEETLKVGPQVGLFLDAVVFGGEDFRASIGATSSKETLDILYARQKIVVIAKAFGLQAIDLVYIDFRDGAGLLRQSREGAAMGFTGKQVIHPNQIAVVQEQFSPSPEKIKWAEELIAAFKEHQQLGKGAFTFQGSMIDMPLLKQAQNTVTLATSIKEK [CLYBL]	-0.168	0.0246
MGIWQRLLLFGGVSLRAGGGATAPLGGSRAMVCGRQLSGAGSETLKQRRTQIMSRGLPKQKPIEGVKQVIVVASGKGGVGKSTTAVNLALALAANDSSKAIGLLDVDVYGPSVPKMMNLKGNPELSQSNLMRPLLNYGIACMSMGFLVEESEPVVWRGLMVMSAIEKLLRQVDWGQLDYLVVDMPPGTGDVQLSVSQNIPITGAVIVSTPQDIALMDAHKGAEMFRRVHVPVLGLVQNMSVFQCPKCKHKTHIFGADGARKLAQTLGLEVLGDIPLHLNIREASDTGQPIVFSQPESDEAKAYLRIAVEVVRRLPSPSE [NUBPL]	0.45	0.138
MARISFSYLCPASWYFTVPTVSPFLRQRVAFLGLFFISCLLLLMLIIDFRHWSASLPRDRQYERYLARVGELEATDTEDPNLNYGLVVDCGSSGSRIFVYFWPRHNGNPHDLLDIKQMRDRNSQPVVKKIKPGISAMADTPEHASDYLRPLLSFAAAHVPVKKHKETPLYILCTAGMRLLPERKQLAILADLVKDLPLEFDFLFSQSQAEVISGKQEGVYAWIGINFVLGRFDHEDESDAEATQELAAGRRRTVGILDMGGASLQIAYEVPTSTSVLPAKQEEAAKILLAEFNLGCDVQHTEHVYRVYVTTFLGFGGNFARQRYEDLVLNETLNKNRLLGQKTGLSPDNPFLDPCLPVGLTDVVERNSQVLHVRGRGDWVSCGAMLSPLLARSNTSQASLNGIYQSPIDFNNSEFYGFSEFFYCTEDVLRIGGRYHGPTFAKAAQDYCGMAWSVLTQRFKNGLFSSHADEHRLKYQCFKSAWMYQVLHEGFHFPYDYPNLRTAQLVYDREVQWTLGAILYKTRFLPLRDLRQEGVRQAHGSWFRLSFVYNHYLFFACILVVLLAIFLYLLRLRRIHHRQTRASAPLDLLWLEEVVPMMGVQVGP [ENTPD7]	-0.358	0.145
MKTVLMVAEKPSLAQSIAKILSRGSLSSHKGLNGACSVHEYTGTFAGQPVRFKMTSVCGHVMTLDFLGKYNKWDKVDPAELFSQAPTEKKEANPKLNMVKFLQVEGRGCDYIVLWLDCDKEGENICFEVLDAVLPVMNKAHGGEKTVFRARFSSITDTDICNAMACLGEPDHNEALSVDARQELDLRIGCAFTRFQTKYFQGKYGDLDSSLISFGPCQTPTLGFCVERHDKIQSFKPETYWVLQAKVNTDKDRSLLLDWDRVRVFDREIAQMFLNMTKLEKEAQVEATSRKEKAKQRPLALNTVEMLRVASSSLGMGPQHAMQTAERLYTQGYISYPRTETTHYPENFDLKGSLRQQANHPYWADTVKRLLAEGINRPRKGHDAGDHPPITPMKSATEAELGGDAWRLYEYITRHFIATVSHDCKYLQSTISFRIGPELFTCSGKTVLSPGFTEVMPWQSVPLEESLPTCQRGDAFPVGEVKMLEKQTNPPDYLTEAELITLMEKHGIGTDASIPVHINNICQRNYVTVESGRRLKPTNLGIVLVHGYYKIDAELVLPTIRSAVEKQLNLIAQGKADYRQVLGHTLDVFKRKFHYFVDSIAGMDELMEVSFSPLAATGKPLSRCGKCHRFMKYIQAKPSRLHCSHCDETYTLPQNGTIKLYKELRCPLDDFELVLWSSGSRGKSYPLCPYCYNHPPFRDMKKGMGCNECTHPSCQHSLSMLGIGQCVECESGVLVLDPTSGPKWKVACNKCNVVAHCFENAHRVRVSADTCSVCEAALLDVDFNKAKSPLPGDETQHMGCVFCDPVFQELVELKHAASCHPMHRGGPGRRQGRGRGRARRPPGKPNPRRPKDKMSALAAYFV [TOP3B]	-0.535	0.0647
MSRSGAAAEKADSRQRPQMKVNEYKENQNIAYVSLRPAQTTVLIKTAKVYLAPFSLSNYQLDQLMCPKSLSEKNSNNEVACKKTKIKKTCRRIIPPKMKNTSSKAESTLQNSSSAVHTESNKLQPKRTADAMNLSVDVESSQDGDSDEDTTPSLDFSGLSPYERKRLKNISENADFFASLQLSESAARLREMIEKRQPPKSKRKKPKRENGIGCRRSMRLLKVDPSGVSLPAAPTPPTLVADETPLLPPGPLEMTSENQEDNNERFKGFLHTWAGMSKPSSKNTEKGLSSIKSYKANLNGMVISEDTVYKVTTGPIFSMALHPSETRTLVAVGAKFGQVGLCDLTQQPKEDGVYVFHPHSQPVSCLYFSPANPAHILSLSYDGTLRCGDFSRAIFEEVYRNERSSFSSFDFLAEDASTLIVGHWDGNMSLVDRRTPGTSYEKLTSSSMGKIRTVHVHPVHRQYFITAGLRDTHIYDARRLNSRRSQPLISLTEHTKSIASAYFSPLTGNRVVTTCADCNLRIFDSSCISSKIPLLTTIRHNTFTGRWLTRFQAMWDPKQEDCVIVGSMAHPRRVEIFHETGKRVHSFGGEYLVSVCSINAMHPTRYILAGGNSSGKIHVFMNEKSC [WDR76]	-1.61	1.15
MSNGYSTDENFRYLISCFRARVKMYIQVEPVLDYLTFLPAEVKEQIQRTVATSGNMQAVELLLSTLEKGVWHLGWTREFVEALRRTGSPLAARYMNPELTDLPSPSFENAHDEYLQLLNLLQPTLVDKLLVRDVLDKCMEEELLTIEDRNRIAAAENNGNESGVRELLKRIVQKENWFSAFLNVLRQTGNNELVQELTGSDCSESNAEIENLSQVDGPQVEEQLLSTTVQPNLEKEVWGMENNSSESSFADSSVVSESDTSLAEGSVSCLDESLGHNSNMGSDSGTMGSDSDEENVAARASPEPELQLRPYQMEVAQPALEGKNIIICLPTGSGKTRVAVYIAKDHLDKKKKASEPGKVIVLVNKVLLVEQLFRKEFQPFLKKWYRVIGLSGDTQLKISFPEVVKSCDIIISTAQILENSLLNLENGEDAGVQLSDFSLIIIDECHHTNKEAVYNNIMRHYLMQKLKNNRLKKENKPVIPLPQILGLTASPGVGGATKQAKAEEHILKLCANLDAFTIKTVKENLDQLKNQIQEPCKKFAIADATREDPFKEKLLEIMTRIQTYCQMSPMSDFGTQPYEQWAIQMEKKAAKEGNRKERVCAEHLRKYNEALQINDTIRMIDAYTHLETFYNEEKDKKFAVIEDDSDEGGDDEYCDGDEDEDDLKKPLKLDETDRFLMTLFFENNKMLKRLAENPEYENEKLTKLRNTIMEQYTRTEESARGIIFTKTRQSAYALSQWITENEKFAEVGVKAHHLIGAGHSSEFKPMTQNEQKEVISKFRTGKINLLIATTVAEEGLDIKECNIVIRYGLVTNEIAMVQARGRARADESTYVLVAHSGSGVIEHETVNDFREKMMYKAIHCVQNMKPEEYAHKILELQMQSIMEKKMKTKRNIAKHYKNNPSLITFLCKNCSVLACSGEDIHVIEKMHHVNMTPEFKELYIVRENKALQKKCADYQINGEIICKCGQAWGTMMVHKGLDLPCLKIRNFVVVFKNNSTKKQYKKWVELPITFPNLDYSECCLFSDED [IFIH1]	-0.109	-0.0235
DOCK4	-0.259	0.0146
